These results are taken from publication PMC12440816.

For experiment [1], the target named is Luc-MCM/Cdt1 (luciferase-tagged MCM in complex with Cdt1) [Saccharomyces cerevisiae]. The experiment in a line: MCM recruitment assay (DNA pulldown, luciferase-tagged MCM) in ATPγS. As to conditions: ARS1 origin, read off a plot.
In experiment [2] the target is MCM replicative helicase hexamer (Mcm2–7), loaded on DNA (Saccharomyces cerevisiae) (UniProt P29469).
The target is the same in experiment [3]. The source holds these as a separate data set.

With “origin recognition complex (ORC), wild type mutant Orc6:S106A; Orc6:S116A; Orc6:S123A; Orc6:T146A [Saccharomyces cerevisiae] / Luc-MCM/Cdt1 (luciferase-tagged MCM in complex with Cdt1) [Saccharomyces cerevisiae] chain 6 S106A, chain 6 S116A, chain 6 S123A, chain 6 T146A”, the response in experiment [1] (+ CDK (Orc2 phosphorylated)) is 230 fmol; in experiment [1] (- CDK (ORC not phosphorylated)) it was 250 fmol.
In the case of “MCM replicative helicase hexamer (Mcm2–7), loaded on DNA, P29469 1-868; P24279 1-971; P30665 1-933; P29496 1-775; P53091 1-1017; P38132 1-845”, in experiment [2], the high-salt-resistant luciferase-tagged MCM on the 300 bp[lacO] template at 30 min, with IPTG against without IPTG (SHs loaded by Orc2∆N behind a LacI roadblock) turned out to be 3.8 fold. In addition, the high-salt-resistant luciferase-tagged MCM on the 300 bp[lacO] template, with IPTG against without IPTG, after free MCM–Cdt1 and Cdc6 were washed off in experiment [3] came out at 3.3 fold.
